The target in data set [1] is T1, ADR-1 WT (Caenorhabditis elegans) (UniProt Q9U3D6).
T1 sequence: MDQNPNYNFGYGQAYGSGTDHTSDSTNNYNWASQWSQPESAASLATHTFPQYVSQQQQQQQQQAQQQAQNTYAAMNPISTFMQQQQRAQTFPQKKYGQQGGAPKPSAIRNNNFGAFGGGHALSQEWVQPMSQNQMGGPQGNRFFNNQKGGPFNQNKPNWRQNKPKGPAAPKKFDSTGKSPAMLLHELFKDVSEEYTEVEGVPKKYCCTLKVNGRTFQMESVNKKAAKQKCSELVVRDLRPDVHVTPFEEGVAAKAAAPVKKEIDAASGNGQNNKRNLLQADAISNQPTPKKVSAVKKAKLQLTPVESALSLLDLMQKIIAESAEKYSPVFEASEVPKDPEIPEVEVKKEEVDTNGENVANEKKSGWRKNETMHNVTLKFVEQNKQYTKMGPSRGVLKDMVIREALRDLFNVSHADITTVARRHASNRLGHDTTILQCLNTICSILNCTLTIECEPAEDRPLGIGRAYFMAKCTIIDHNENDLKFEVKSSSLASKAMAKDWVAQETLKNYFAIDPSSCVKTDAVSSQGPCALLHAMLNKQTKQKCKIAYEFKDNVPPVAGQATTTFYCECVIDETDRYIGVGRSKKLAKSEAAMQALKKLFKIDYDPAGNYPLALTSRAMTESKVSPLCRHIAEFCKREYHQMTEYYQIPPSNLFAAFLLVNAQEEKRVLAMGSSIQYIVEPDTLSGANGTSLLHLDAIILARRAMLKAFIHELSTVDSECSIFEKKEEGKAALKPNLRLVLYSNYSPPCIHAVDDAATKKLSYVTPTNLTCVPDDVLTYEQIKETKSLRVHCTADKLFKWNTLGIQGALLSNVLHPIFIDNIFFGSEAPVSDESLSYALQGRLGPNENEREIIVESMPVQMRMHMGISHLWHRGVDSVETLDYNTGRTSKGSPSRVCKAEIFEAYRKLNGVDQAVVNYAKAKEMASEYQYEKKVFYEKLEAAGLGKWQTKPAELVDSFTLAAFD
In words: EMSA. To be noted: EMSA: 20 pM dsRNA, 50 mM KCl, 10 mM Tris-HCl pH 8.0, 10% glycerol, 1 mM MgCl2, 0.5 mM DTT, on ice 30 min; native 6% gel, 0.5x TBE, 4 C.

Data set [2] concerns the target ADR-2 WT (Caenorhabditis elegans) (UniProt Q22618). Description: EMSA. To be noted: EMSA: 20 pM dsRNA, 50 mM KCl, 10 mM Tris-HCl pH 8.0, 10% glycerol, 1 mM MgCl2, 0.5 mM DTT, on ice 30 min; native 6% gel, 0.5x TBE, 4 C.

Chain of ADR-2 WT (Caenorhabditis elegans) (Q22618 whole entry): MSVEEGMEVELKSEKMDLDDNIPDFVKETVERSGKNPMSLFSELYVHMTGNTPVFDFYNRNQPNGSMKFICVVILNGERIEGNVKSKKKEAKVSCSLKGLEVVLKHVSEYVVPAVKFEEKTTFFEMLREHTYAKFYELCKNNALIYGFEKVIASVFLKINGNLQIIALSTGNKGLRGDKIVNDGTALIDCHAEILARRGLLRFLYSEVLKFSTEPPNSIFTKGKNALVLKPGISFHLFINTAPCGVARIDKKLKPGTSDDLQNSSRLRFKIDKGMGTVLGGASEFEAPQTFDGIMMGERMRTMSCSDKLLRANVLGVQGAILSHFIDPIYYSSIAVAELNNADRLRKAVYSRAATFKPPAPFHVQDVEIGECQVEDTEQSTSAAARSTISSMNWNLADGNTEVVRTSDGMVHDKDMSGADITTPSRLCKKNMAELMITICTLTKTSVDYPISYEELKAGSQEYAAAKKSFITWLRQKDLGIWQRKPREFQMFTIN

In the case of “UUAUUAGGUCGGCAAAUAAUUAUUGACGUGUUUUGCCAAUUAACGAUUUUUUGUAAAUUUUAUAUGUGUCUCUUACAGUAAACCGAGAGUGUAUAAAAGCAUAUGAAUAUCAGUUGCUUUGGUCAUCUGAGUAGUAAUACGAUUCGAAAAAAUCGAAAAGUUUUUUUUCCAAUUUUUUGAGUUAGCCGUGAGAGUUG / CAACUCUUCACAGCUAACUCAAAAAAUCGCGAAAAGCAUUUUUCAAAAAAUUUUUGAUUUUUUAGAUUCUUAAUACUACGCAGGUAGCCAAAGUAGCUGAUAUUUUUAUGUUUUCAUACAUUCACAUUUUACUAUAAGACACACAUACAAAAUUUACAAAAAUUGUUAAUUGACAAAAUACGUCAAUAAUUAUUUGUCUACCUAAUAA [lam-2 3'UTR 200 bp dsRNA]”, the Kd (as a rule, a measure of binding affinity in units of concentration) in data set [1] is 0.43 nM; in data set [2], 76.3 nM.

(Values after paper PMC6182170.)
